Assay results published in PMC9035363 (Cell Reports, 2022).
Read-outs that look alike come from different tables or passages of the source.

B1: LY-CoV1404 (bebtelovimab), full-length human IgG1 mAb (antibody, V domains shown)
VH: QITLKESGPTLVKPTQTLTLTCTFSGFSLSISGVGVGWLRQPPGKALEWLALIYWDDDKRYSPSLKSRLTISKDTSKNQVVLKMTNIDPVDTATYYCAHHSISTIFDHWGQGTLVTVSS
VL: QSALTQPASVSGSPGQSITISCTATSSDVGDYNYVSWYQQHPGKAPKLMIFEVSDRPSGISNRFSGSKSGNTASLTISGLQAEDEADYYCSSYTTSSAVFGGGTKLTVL
B2: LY-CoV1404 Fab (papain digestion) (Fab, V domains shown)
VH: B1 VH
VL: B1 VL

Tests used:
[1] = target: SARS-CoV-2 RBD (monomeric) (SARS-CoV-2, Wuhan reference …, UniProt P0DTC2); assay: SPR
[2] = target: T1, SARS-CoV-2 S protein, wild type, on CHO cells (SARS-CoV-2, Wuhan (GenBank MN908947.3), UniProt P0DTC2); assay: cell-based or functional assay
[3] = target: T1, SARS-CoV-2 S protein, wild type, on CHO …; assay: cell-based or functional assay; remark: listed apart in the source
[4] = target: T2, RBD-Fc, reference sequence (SARS-CoV-2, Wuhan reference …, UniProt P0DTC2); assay: SPR
[5] = target: T2, RBD-Fc, reference sequence; assay: SPR; remark: listed apart in the source

| Binder | Kd [1] | authentic SARS-CoV-2/MT020880.1 neutralisation, IFA, IC50 (S-ACE2) [2] | PRNT, Italy-INMI1 isolate, combination study, LY-CoV1404 alone, IC50 [3] | PRNT, authentic Italy-INMI1 isolate, IC50 [3] | PRNT, authentic WA isolate, IC50 [3] | Kd [4] | Kd [5] |
| --- | --- | --- | --- | --- | --- | --- | --- |
| B1 | 1.58 nM | 0.009 to 0.0221 µg/mL | 0.015 µg/mL | 0.01 µg/mL | 0.002 µg/mL | – | – |
| B2 | – | – | – | – | – | 3.71 nM | 4.01 nM |
